Reference: patent US20260258115A1 (MAPP BIOPHARMACEUTICAL, published 2026)
Where a chain is given by its changes, count along the chain named.

B1: ADI-41594 (antibody, V domains shown)
VH: EVQLVESGGGLVKPGGSLRLSCAASGFSFSSYYMNWVRQAPGKGLEWVSSISPSSSYTNYADSVKGRFTISRDNAKDSLYLQMNSLRAEDTAVYYCARDGLLGITIFGVVQDYWGQGTLVTVSS
VL: QSVVTQPPSVSGAPGQRVTISCTGSSSNIGAGYDVHWYQQLPGTAPKLLIYGNTNRPSGVPDRFSASKSGTSASLAITGLQAEDEADYYCQSYDSSLSVVFGGGTKLTVL
B2: ADI-41585 (antibody, V domains shown)
VH: EVQLLESGGGLVKPGGSLRLSCAASGFTFADYYMSWIRQAPGKGLEWVSYISGGSSFTNYADSVKGRFTISRDNAKNSLYLQMNSLRADDTAVYYCARGISPALGGGEYFQDWGQGTLVTVSS
VL: QPVLTQPPSVSGAPGQRVTISCTGSSSNIGAGYDVHWYQHLPGTAPKLLIYGNSNRPSGVPDRFSGSKSSTSASLAITGLQAEDEADYYCQSYDSSLGGYVFGTGTKVTVL
B3: ADI-41597 (antibody, V domains shown)
VH: QVQLQESGPGLVKPSETLSLTCTVSGASVSSNNYYWSWIRQPPGKGLEWIGYIYYSGSTNYNASLKSRVTISVDTSKNQFSLKLSSVTAADTALYYCAGEHIFGVASPFEAPFDYWGQGTMVTVSS
VL: SSELSQPPSVSVAPGKTARITCGGNNIGIKSVHWYQQKPGQAPVLVIYSDSDRPSGIPERFSGSNSGNTATLTITRVEAGDEADYYCQVWDSSSDHFVFGIGTKVTVL
B4: ADI-41589 (antibody, V domains shown)
VH: EVQLLESGGGLVQPGGSLRLSCAASGFTFNFFALTWVRQAPGKGLEWVSAISGSGESTYYADSVKGRFTISRDNSKNTLYLQMNSLRAEDTAVYYCAKFARSGDYASFFDYWGQGTLVTVSS
VL: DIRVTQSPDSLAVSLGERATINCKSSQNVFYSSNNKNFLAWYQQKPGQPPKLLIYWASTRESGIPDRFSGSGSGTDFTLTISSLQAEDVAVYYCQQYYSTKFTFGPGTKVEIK
B5: ADI-41595 (antibody, V domains shown)
VH: QVQLVQSGGGVVQPGGSLRLSCAASGFTFSDYGMHWVRQAPGKGLEWVAVISDGGSNQYSADSVRGRFTISRDNSKNTLYLQMNSLRPEDTAVYYCAKARIAARAIFDYWGQGTLVTVSS
VL: DIQLTQSPSSLSASVGERITITCQASRDVRIYLNWYQHKPGKAPKLLIYDASNLETGVPSRYSGSGSGTDFTFTISSLQPEDIATYFCQQYDLLPPTFGVGTKVEIK
B6: ADI-41599 (antibody, V domains shown)
VH: EVQLLESGGGLVQPGGSLRLSCAASGFIFSNYEMNWVRQAPGKGLEWISHITPTGNSIYYADSVKGRFTISRDNAKNAQYLQMHSLRPDDTAIYYCARGEDPIAATGGFDSWGQGTLVTVSS
VL: EIVLTQSPSSLSASVGDRVTIPRRSSQNVDKFLHWYQQRPGKAPKLLIYAAFSLQSGVPSRFSGSGSGTDFTLTISSLQPEDFATYYCQQSYSTPFTFGQGTKVEIK
B7: ADI-41598 (antibody, V domains shown)
VH: EVQLVESGPGLVKPSETLSLTCTVSGGSITPYYWSWIRQPPGKGLEWIGNISYSGSTTYNPSLKSRVTISVDRSKDQFSLRLRSVTAADTAVYYCARVVTLVLGVSLNDAFDIWGQGTMVTVSS
VL: DIQMTQSPSSLSASVGDRVTITCRASQSISRYLNWYQHKPGKAPILLIYAATTLESGVPPRFSGSGSGTDFSLTISSLQPEDFATYYCQQSYSVPLTFGGGTKLEIK
B8: ADI-41240 (antibody, V domains shown)
VH: QVQLQQWGAGLLKPSETLSLICDVYGGSFSDYYWSWIRQSPGKGLEWIGEINHSGSTSFHPSLKSRISISIDTSNNQFSLNLSSMTAADTAVYYCARGTLRGYFDYWGQGTLVTVSS
VL: EIVLTQSPSTLSAFVGDRVTITCRASQSISRWLAWYQQKPGKAPNLLISEASSLESGVPSRFSGSGSGTEFTLTISSLQPDDLGTYYCQQYNGYLWTFGQGTKVEIK
B9: ADI-41236 (antibody, V domains shown)
VH: QVQLVQSGGGLVKPGGSLRLSCTASGFTFSDYYMDWIRQAPGKGLEWVSSISSSSTYTKYADSVKGRFTISRDNAKNSLFLQMNSLRAEDTAVYYCVRNLGPYCSSTSCFVFDYWGQGTLVTVSS
VL: QSVLTQPPSVSGAPGQRVSISCTGSSSNIGAGYEVHWYKQVPGTAPRLLMYDNTNRPSGVPDRVSGSKSGTSASLAITGLQAEDEADYYCQSYDNSLNKSVFGGGTKVTVL
B10: ADI-41247 (antibody, V domains shown)
VH: QVQLVQSGAEVKKPGASLQVSCKASGYTFTDSYFHWVRQAPGQGLEWMGRISPHSGGTNYAQKFQGRVTMTRDTSISTAYLELSRLRSDDTAVYYCATEGPRGPFRFDPWGQGTLVTVSS
VL: NFMLTQPHSVSESPGKTVTISCTRSSGSIASNYVQWYQQRPGSSPTTVIYEDNQRPSGVPDRFSGSIDSSSNSASLTISGLMTEDEADYYCQSYDSSNWVFGGGTKLTVL
B11: ADI-41235 (antibody, V domains shown)
VH: QVQLQQWGAGLLKPSETLSLTCGVYGESFSGHYWSWIRQPPGKGLEWMGEIHHSGTTNYNPSLKSRVTISVDTSKNQFSLKLNSVTAADTAVYYCARNPAEDILTGYSPPFHYYYMDVWGKGTTVTVSS
VL: B1 VL with V4L, L41I, Y51H, G52S, T54N, A66G
B12: ADI-41238 (antibody, V domains shown)
VH: EVQLLESGGGLVKPGGSLRLSCAASGFTFRDYYMSWIRQAPGKGLEWVSYISSSSSYTEYADSVKGRFTISRDNAKKSLYLQMNSLRTEDTAVYYCARVITQAGTGTTYYMDVWGKGTTVTVSS
VL: B1 VL with V4L, A31T, G52A, T54N, A66G, V99L
B13: ADI-41237 (antibody, V domains shown)
VH: EVQLVESGGGLVKPGGSLRLSCAASGFTFSDYYMNWIRQAPGKGLEWVSDISPSSSYTNYADSVKGRFTISRDNAKNSLYLQMNSLRAEDTAMYYCARRGSCTGGVCSFDYWGQGTLVTVSS
VL: B2 VL with V3G, H36N, H40Q, G52D, S70G, Y88F, G98S, Y100F
B14: ADI-41245 (antibody, V domains shown)
VH: QVQLVESGGGLVKPGGSLRLSCAASGFSFSAYYMSWIRQAPGKGLEWISNISGGSSYANYADSVEGRFTISRDNAKNSLYLQMNSLRAEDTAVYYCAREFQTYYYMDVWGKGTTVTVSS
VL: B2 VL with D34E, H40Q, S54N, S70G, G98S, Y100S, T104G, V108L
B15: ADI-41243 (antibody, V domains shown)
VH: QVQLVQSRAEVKKPGESLKISCKGSLHSFSNNWIGWVRQMPGKGLEWMGIIFPDDSDTRYSPSFQGQVTISADKSISTAYLQWSSLKASDTAIYYCGTVVTLIQGVADWGQGTLVTVSS
VL: QPVLTQPHSVSESPGKTVTISCTRSSGSIDSSYVQWYQQRPGSSPTTVIYEDNLRPSGVPDRFSGSIDSSSNSASLTISGLKTEDEAEYYCQSYDSSNPVVFGGGTKLTVL
B16: ADI-41244 (antibody, V domains shown)
VH: QVTLKESGGGLIQPGGSLRLSCAVSGFTVSSKYMSWVRQAPGKGLEWVSVIYGGGSTYYTDSVKGRFTISRDNSNNTLYLQMNSLRAEDTAIYYCAREARSYNYDYVGNDAFDIWGQGTTVTVSS
VL: DIVLTQTPDSLAVSLGERATINCKSSQSVLNNFNNKNYLAWYQQKPGQPPKLLIYWASTRESGVPDRFSGSGSGTDFTLTITSLQAEDVAIYYCQQYYRTPPYTFGQGTKVDIK
B17: ADI-41249 (antibody, V domains shown)
VH: QVQLVQSGAEVKKPGESLKISCQVSRDTSTTYWIGWVRQMPGKGLEWMGIIFPGDSDTRYSPSFQGQVTISADKSIMTAYLQLTSLKASDTAMYYCATQALRGAFDIWGQGTMVTVSS
VL: DIRLTQSPSSLSASVGDRVTITCQASQDISNYLNWYQQKPGKAPKLLIYDASYLETGVPSRFSGSGSGTDFTFTISSLQPEDFATYYCQQYDDLLFTFGPGTKLEIK
B18: ADI-41239 (antibody, V domains shown)
VH: QITLKESGPTLVKPTQTLTLTCTFSGFSLTTTGVGVGWIRQPPGKALEWLALIYWDDDKRYSPSLKNRITITKDTSKKQVVLTMTNMDPADTATYYCAHISTVVTYDSSGSYYVLINWFDPWGQGTLVTVSS
VL: not shown
B19: ADI-41242 (antibody, V domains shown)
VH: EVQLVESGGGVVQPGRSLRLSCAASGFPFSSYAMHWVRQAPGKGLEWVAVIWFEGNEKYFADSVEGRFTISRDNSKNTLYLQMNSLRAEDTARYYCARFYFGAFDIWGQGTLVTVSS
VL: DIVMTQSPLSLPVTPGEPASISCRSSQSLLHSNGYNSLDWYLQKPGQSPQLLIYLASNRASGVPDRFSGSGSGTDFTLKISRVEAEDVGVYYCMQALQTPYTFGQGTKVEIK
B20: ADI-41246 (antibody, V domains shown)
VH: EVQLLESGPGLVKPSETLSLTCIVSGGSISSYNWNWIRQPPGKGLEWIGYIYNSGSTNYNPSLKSRVTISVDTSKNQFSLKLSSVTAADTAVYYCARYFDYGSGGFDYWGQGTLVTVSS
VL: ETTLTQSPGTLSLSPGERATLSCRASQSVTSTYLAWYQQKPGQAPRLLIYGASSRATGIPDRFSGSGSGTDFTLTISRLEPEDFAVYYCQQFDSSLTFGGGTKVEIK
B21: ADI-41241 (antibody, V domains shown)
VH: QVQLVQSGAEVKKPGASVQVSCKASGYTFTGDYMHWVRQAPGQGLEWMGRINPNSGGTNYAQKFQGRVTMTRDTSISTAYMELSRLRSDDTAVYYCARAAAEYSSSSPTSYYYMDVWGKGTTVTVSS
VL: EIQMTQSPSSLSASVGDRVTITCRASQNIYSFLNWYQQKPGKAPKLLIYAASSLQSGVPSRFSGSGSATDFTLTISSLQPEDFATYYCQQSYSPPQITFGQGTKVDIK
B22: ADI-41248 (antibody, V domains shown)
VH: QVQLVQSGGGVVQPGRSLRLSCAASGFTFSSYSMHWVRQAPGKGLEWMAVCWYDGSNIYYADSVKGRFTISRDNSKNTVYLQMNSLRAEDTAVYYCARDDRYCSGGTCLSAFDIWGQGTMVTVSS
VL: ETTLTQSPSSLSASVGDRVTITCRASQSISSYLNWYQQKPGRAPKLLIYTTSSLQSGVSSRFSGSGSGTDFTLTINSLQPEDFATYYCQQSYSTPNTFGQGTKVEIK

Biological target: RSV F on RSV-A2 virus (Respiratory syncytial virus, RSV-A2, UniProt P03420 26-574)
Test: cell-based or functional assay

Binder | Neutralization IC50 (RSV subtype A) [µg/mL]
B1 | 0.0406
B2 | 0.0641
B3 | 0.173
B4 | > 25
B5 | 0.0475
B6 | 0.637
B7 | 0.174

Biological target: RSV F on RSV-A2 virus (Respiratory syncytial virus (RSV-A2))
Test: cell-based or functional assay

Binder | Neutralization IC50 (RSV subtype A) [µg/mL]
B8 | > 25
B9 | > 25
B10 | > 25
B11 | > 25
B12 | 0.13
B13 | 0.04
B14 | 0.71
B15 | > 25
B16 | > 25
B17 | 0.01
B18 | > 25
B19 | > 25
B20 | > 25
B21 | 18.8
B22 | > 25
